From publication PMC12177922, “In Vivo Ribosome-Amplified MetaBOlism, RAMBO, Effect Observed by Real Time Pulse Chase, RTPC, NMR Spectroscopy” (Biochemistry, 2025)

Substrate: Nc1ncnc2c1ncn2[C@@H]1O[C@H](COP(=O)(O)OP(=O)(O)OP(=O)(O)O)[C@@H](O)[C@H]1O
Experiment: direct 1H NMR kinetic assay (FBP peak)
Type: biochemical, Geobacillus stearothermophilus
Settings: 1 mM F6P, 1 nM enzyme, pH 7.5, 10 mM sodium phosphate, 50 mM KCl, 10 mM MgCl2, 10 °C, no ribosomes, fit with substrate inhibition

B1: PFK-A (Geobacillus stearothermophilus) (protein)
chain: MKRIGVLTSGGDSPGMNAAIRSVVRKAIYHGVEVYGVYHGYAGLIAGNIKKLEVGDVGDIIHRGGTILYTARCPEFKTEEGQKKGIEQLKKHGIEGLVVIGGDGSYQGAKKLTEHGFPCVGVPGTIDNDIPGTDFTIGFDTALNTVIDAIDKIRDTATSHERTYVIEVMGRHAGDIALWSGLAGGAETILIPEADYDMNDVIARLKRGHERGKKHSIIIVAEGVGSGVDFGRQIQEATGFETRVTVLGHVQRGGSPTAFDRVLASRLGARAVELLLEGKGGRCVGIQNNQLVDHDIAEALANKHTIDQRMYALSKELSI
notes: commercial lyophilized enzyme (Sigma-Aldrich)
Q: How did the Km turn out when B1 was run?
A: 84 ± 9.8 µM

Q: And the kcat?
A: 36 ± 1.5 s⁻¹
